Experimental data from publication PMC6160459, “Identification of Peptide Mimotope Ligands for Natalizumab” (Scientific Reports, 2018).

What was measured:
[1] = target: Natalizumab; assay: peptide array variant scan, natalizumab binding in arbitrary ELISA units; settings: chain shown with the change;, read off a plot
[2] = target: Ntz-01 synthetic peptide; assay: BLI; Octet Red96; 10 µg/ml peptide immobilised on a streptavidin sensor; natalizumab in solution 1-600 nM, three-fold dilutions; TBS; apparent affinity
[3] = target: Ntz-02 synthetic peptide; assay: as above
[4] = target: Ntz-03 synthetic peptide; assay: as above
[5] = target: Ntz-04 synthetic peptide; assay: as above
[6] = target: Ntz-05 synthetic peptide; assay: as above
[7] = target: Ntz-06 synthetic peptide; assay: as above
[8] = target: Ntz-07 synthetic peptide; assay: as above
[9] = target: Ntz-06 synthetic peptide; assay: ELISA; Protocol-2: biotinylated peptide at 1 µg/ml in TBS on streptavidin-coated wells; natalizumab in 2.5% BSA/1X casein/TBST (or diluted human serum) 1 h at RT; detected with anti-IgG4-HRP; apparent affinity
[10] = target: Ntz-07 synthetic peptide; assay: as above

ACPRNESKFC [Ntz-01 parent peptide on the Pepscan array H4R]
response ([1]; parent: est. 1100): 2400 mAU

ACPKNPSKFC [Ntz-03 parent peptide on the Pepscan array N7S]
response ([1]; parent: est. 60): 2300 mAU

ACPQNPSKFC [Ntz-02 parent peptide on the Pepscan array S4Q]
response ([1]; parent: est. 80): 1000 mAU

ACPKNPSKFC [Ntz-02 parent peptide on the Pepscan array S4K]
response ([1]; parent: est. 80): 1900 mAU

ACPMNPSKFC [Ntz-01 parent peptide on the Pepscan array E6P]
response ([1]; parent: est. 1100): 1500 mAU

B1: Natalizumab (antibody, V domains shown)
VH: QVQLVQSGAEVKKPGASVKVSCKASGFNIKDTYIHWVRQAPGQRLEWMGRIDPANGYTKYDPKFQGRVTITADTSASTAYMELSSLRSEDTAVYYCAREGYYGNYGVYAMDYWGQGTLVTVSS
VL: DIQMTQSPSSLSASVGDRVTITCKTSQDINKYMAWYQQTPGKAPRLLIHYTSALQPGIPSRFSGSGSGRDYTFTISSLQPEDIATYYCLQYDNLWTFGQGTKVEIK
Kd [2]: 29.1 nM | Kd [3]: 32.1 nM | Kd [4]: 31.4 nM | Kd [5]: 6.03 nM | Kd [6]: 10.5 nM | Kd [7]: 6.87 nM | Kd [8]: 3.24 nM | fold improvement of apparent affinity over Ntz-01 [9]: 1.7 fold | fold improvement of apparent affinity over Ntz-02 [10]: 6.2 fold | fold improvement of apparent affinity over Ntz-03 [10]: 14 fold
